Measurements from US20230416345A1, “NEW TYPE II COLLAGEN BINDING PROTEINS” (Navigo Proteins GmbH, priority 2020, published 2023).

Assays:
Format in all cases: binding
[1] = target: T1, recombinant human collagen type II (h Col II) (Homo sapiens, UniProt P02458); test: KD-determination by ELISA vs human collagen type II; settings: type II collagen; tetramers: of different species
T1 construct: purchased Chondrex CHX-20051
Method: (§1) High binding plates (Greiner, 781061) were immobilized with 2.5 μg/ml recombinant human collagen type II (h Col II, Chondrex, CHX-20051), rabbit collagen type II (rbCol II, prepared from rabbit eyes), porcine collagen type II (p Col II, prepared from porcine eyes), human collagen type I, (h Col I, Sigma, C5483-1MG), human collagen type V (h Col V, Abcam, ab7537), human collagen type III (h Col Ill, Abcam, ab7535) and 67B89 (domain of fibronectin, produced in E. coli) respectively over night at 4° C. ELISA-plates were washed 3 times with PBST (PBS+ 0.1% Tween) and blocked with 3% BSA/0.5% Tween/PBS 2 h at RT. After washing with PBST, dilution series of 1.1 μM to 7×10^−4 nM of dimers (CID 211999, CID 212000), dilution series of 100 nM to 7×10^−6 nM of tetramers (CID 212001 and CID 212704) and dilution series of 10 μM to 2 nM of dimer (CID 212705) were incubated on ELISA-plates 1 h at rt. Plates were washed with PBST and incubated with biotinylated anti-StrepTag-ab (Antikörper-online, ABIN1573895) with a dilution of 1:10.000 for 1 h at rt. The binding was visualized with a-rabbit-IgG-HRP (Sigma, A9169) with a dilution of 1:10.000 and as substrate TMB Plus von KEM EN TEC Diagnostic, Kat-Nr. 4395.

[2] = target: T2, human collagen type I (h Col I) (Homo sapiens, UniProt P02452+P08123); test: ELISA specificity vs human collagen type I
T2 construct: purchased Sigma C5483-1MG
T2 sequence (P02452 162-1218 limits assumed): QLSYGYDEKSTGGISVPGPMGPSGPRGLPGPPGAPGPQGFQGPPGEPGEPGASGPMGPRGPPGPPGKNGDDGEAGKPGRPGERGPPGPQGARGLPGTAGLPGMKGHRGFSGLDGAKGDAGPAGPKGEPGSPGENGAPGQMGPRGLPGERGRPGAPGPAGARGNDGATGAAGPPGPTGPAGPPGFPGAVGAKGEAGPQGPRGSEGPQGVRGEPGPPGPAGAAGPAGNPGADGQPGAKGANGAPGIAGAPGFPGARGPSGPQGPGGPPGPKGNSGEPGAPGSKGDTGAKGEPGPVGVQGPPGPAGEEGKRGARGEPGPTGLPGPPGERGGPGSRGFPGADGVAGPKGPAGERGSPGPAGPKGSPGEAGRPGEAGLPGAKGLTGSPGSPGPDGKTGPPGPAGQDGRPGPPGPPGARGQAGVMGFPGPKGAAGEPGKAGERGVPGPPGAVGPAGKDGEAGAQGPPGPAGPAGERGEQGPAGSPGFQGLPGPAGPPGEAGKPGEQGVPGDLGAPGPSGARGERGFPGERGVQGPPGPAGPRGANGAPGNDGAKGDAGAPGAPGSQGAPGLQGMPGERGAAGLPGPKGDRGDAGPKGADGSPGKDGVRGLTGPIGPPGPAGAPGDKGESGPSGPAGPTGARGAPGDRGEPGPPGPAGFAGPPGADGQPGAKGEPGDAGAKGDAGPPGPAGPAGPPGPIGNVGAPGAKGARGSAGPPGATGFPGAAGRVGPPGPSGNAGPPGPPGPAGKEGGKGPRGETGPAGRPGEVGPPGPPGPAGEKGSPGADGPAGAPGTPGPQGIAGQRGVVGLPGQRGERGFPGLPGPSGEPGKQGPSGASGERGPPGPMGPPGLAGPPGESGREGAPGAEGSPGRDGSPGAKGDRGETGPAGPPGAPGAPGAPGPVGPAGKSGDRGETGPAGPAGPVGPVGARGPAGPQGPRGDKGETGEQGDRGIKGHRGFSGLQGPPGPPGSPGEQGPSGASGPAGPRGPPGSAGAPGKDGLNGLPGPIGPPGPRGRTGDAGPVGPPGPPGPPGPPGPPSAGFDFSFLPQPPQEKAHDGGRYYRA
T2 sequence (P08123 80-1119 limits assumed): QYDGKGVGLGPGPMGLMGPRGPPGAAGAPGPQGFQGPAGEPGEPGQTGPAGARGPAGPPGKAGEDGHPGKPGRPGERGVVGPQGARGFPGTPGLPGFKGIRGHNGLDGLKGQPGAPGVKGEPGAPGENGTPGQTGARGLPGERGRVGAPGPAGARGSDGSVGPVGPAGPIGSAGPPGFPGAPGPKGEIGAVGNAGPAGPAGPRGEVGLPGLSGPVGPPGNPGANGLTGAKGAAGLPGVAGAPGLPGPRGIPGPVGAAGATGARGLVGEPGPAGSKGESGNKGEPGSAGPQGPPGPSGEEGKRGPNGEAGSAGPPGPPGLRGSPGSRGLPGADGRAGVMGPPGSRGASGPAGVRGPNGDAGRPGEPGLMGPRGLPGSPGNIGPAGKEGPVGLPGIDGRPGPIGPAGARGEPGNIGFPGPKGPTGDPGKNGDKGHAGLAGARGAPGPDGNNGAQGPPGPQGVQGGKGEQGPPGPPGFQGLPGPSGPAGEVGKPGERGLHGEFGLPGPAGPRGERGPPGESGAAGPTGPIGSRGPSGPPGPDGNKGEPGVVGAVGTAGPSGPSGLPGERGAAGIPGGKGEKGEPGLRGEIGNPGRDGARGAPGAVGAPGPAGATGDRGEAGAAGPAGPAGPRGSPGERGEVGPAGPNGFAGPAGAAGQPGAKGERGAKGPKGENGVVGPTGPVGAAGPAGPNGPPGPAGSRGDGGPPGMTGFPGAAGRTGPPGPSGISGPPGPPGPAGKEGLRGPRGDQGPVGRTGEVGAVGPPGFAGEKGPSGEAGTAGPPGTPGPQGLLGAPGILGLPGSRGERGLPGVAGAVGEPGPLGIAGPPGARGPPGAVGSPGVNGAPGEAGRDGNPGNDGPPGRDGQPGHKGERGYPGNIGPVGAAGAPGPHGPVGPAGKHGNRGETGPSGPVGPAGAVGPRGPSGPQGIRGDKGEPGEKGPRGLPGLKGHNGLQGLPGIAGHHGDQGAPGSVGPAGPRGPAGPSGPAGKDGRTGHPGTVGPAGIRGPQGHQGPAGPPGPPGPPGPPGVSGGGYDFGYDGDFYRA
Method: as §1

human collagen type III = target: T3, human collagen type III (Homo sapiens, UniProt P02461); test: ELISA specificity vs human collagen type III
T3 construct: purchased Abcam ab7535
T3 sequence (P02461 154-1221 limits assumed): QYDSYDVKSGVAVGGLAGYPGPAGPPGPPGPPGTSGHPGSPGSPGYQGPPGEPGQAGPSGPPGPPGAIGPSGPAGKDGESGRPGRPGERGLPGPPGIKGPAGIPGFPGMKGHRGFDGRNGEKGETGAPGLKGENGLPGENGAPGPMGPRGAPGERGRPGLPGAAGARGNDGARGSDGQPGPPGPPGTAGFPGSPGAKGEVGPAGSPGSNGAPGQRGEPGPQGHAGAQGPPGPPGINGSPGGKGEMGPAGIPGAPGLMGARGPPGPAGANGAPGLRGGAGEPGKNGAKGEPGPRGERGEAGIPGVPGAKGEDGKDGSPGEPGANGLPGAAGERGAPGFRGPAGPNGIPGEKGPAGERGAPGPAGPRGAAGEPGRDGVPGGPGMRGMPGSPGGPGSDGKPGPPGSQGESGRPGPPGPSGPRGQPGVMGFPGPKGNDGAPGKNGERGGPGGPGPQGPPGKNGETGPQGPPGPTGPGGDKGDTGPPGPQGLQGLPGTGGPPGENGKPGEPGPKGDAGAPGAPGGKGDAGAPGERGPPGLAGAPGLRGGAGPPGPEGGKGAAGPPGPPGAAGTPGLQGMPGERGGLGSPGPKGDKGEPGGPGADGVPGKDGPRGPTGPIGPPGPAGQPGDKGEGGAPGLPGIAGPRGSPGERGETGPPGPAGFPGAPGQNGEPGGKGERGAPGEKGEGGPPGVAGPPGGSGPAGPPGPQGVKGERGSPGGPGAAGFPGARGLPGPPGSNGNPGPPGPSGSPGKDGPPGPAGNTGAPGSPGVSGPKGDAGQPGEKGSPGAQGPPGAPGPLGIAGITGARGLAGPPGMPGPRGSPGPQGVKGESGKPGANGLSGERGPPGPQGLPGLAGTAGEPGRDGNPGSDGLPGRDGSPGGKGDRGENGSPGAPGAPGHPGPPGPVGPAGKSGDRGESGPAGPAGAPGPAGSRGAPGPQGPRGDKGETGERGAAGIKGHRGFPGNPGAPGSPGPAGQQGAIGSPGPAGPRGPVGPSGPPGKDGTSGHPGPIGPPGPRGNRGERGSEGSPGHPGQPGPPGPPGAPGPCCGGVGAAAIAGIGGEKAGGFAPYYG
Method: as §1

[3] = target: T4, human collagen type V (h Col V) (Homo sapiens, UniProt P05997+P20908); test: ELISA specificity vs human collagen type V
T4 construct: purchased Abcam ab7537
Method: as §1

T1 sequence (P02458 182-1241): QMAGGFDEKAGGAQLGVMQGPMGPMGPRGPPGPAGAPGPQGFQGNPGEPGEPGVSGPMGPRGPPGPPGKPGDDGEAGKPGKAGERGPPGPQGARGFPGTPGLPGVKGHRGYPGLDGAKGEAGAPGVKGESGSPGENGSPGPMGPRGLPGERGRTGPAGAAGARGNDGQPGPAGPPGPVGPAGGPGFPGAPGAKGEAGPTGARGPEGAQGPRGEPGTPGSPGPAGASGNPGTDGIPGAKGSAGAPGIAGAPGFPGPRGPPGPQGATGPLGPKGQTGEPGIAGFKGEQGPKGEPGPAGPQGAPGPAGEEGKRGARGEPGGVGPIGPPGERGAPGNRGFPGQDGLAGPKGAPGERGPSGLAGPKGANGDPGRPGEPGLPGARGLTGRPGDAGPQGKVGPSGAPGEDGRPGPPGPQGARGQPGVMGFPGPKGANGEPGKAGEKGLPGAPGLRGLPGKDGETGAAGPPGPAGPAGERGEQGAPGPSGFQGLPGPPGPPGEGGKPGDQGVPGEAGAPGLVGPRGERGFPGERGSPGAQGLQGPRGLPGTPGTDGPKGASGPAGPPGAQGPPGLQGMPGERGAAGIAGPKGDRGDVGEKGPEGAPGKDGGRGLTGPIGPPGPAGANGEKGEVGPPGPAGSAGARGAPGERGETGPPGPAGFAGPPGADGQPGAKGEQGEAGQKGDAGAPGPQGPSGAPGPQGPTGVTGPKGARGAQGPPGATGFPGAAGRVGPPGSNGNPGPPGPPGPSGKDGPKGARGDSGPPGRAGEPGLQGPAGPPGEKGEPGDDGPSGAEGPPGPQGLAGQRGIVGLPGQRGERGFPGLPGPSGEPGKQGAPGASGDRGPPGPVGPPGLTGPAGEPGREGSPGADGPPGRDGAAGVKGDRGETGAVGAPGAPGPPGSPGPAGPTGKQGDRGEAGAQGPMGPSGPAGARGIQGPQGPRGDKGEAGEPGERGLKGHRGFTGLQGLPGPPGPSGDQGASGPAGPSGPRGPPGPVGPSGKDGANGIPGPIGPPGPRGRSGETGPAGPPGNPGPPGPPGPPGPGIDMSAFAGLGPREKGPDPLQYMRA

B1: CID 212000: dimer of SEQ ID NO: 2 (dimer with linker between the monomers) (protein)
chain: IAAKFDEAQSAADSEILHLPNLTEQQRHYFRRWLSDDPSVSTHILTQAQHLNDDQAPKGGGGSGGGGSGGGGSGGGGSIAAKFDEAQSAADSEILHLPNLTEQQRHYFRRWLSDDPSVSTHILTQAQHLNDDQAPKSAWSHPQFEK
modifications: Col2 binding protein (dimer of 211261) (CID212000)
In the case of B1, the “binding affinity (KD) to type II collagen by ELISA, in words” value [1] is reported as 1-2-digit nM, the “binding to type I collagen (ELISA)” value [2] is reported as “No unspecific binding” and the “binding to type III collagen (ELISA)” value (human collagen type III) is reported as “No unspecific binding”. The “binding to type V collagen (ELISA)” value [3] was “No unspecific binding”.
